The results in this text go back to patent publication US20210317499A1.

The assay addresses His-tagged FcγRIIIa recombinant protein (UniProt P08637). The experiment in a line: SPR (Biacore X100); His-tagged FcγRIIIa captured on anti-His antibody CM5 chip, antibody as analyte; 1:1 Langmuir fit. Background: In SPR one partner is held on a chip, and binding of the other changes the refractive index at the surface.
Sequence of UniProt P08637 (P08637 17-208 limits assumed): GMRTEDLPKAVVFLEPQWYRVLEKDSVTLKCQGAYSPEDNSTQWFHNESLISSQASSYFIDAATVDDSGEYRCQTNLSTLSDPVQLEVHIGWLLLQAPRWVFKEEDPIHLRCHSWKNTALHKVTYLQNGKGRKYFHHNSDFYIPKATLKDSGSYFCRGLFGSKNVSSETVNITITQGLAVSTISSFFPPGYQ

Usually Kd stands for a measure of binding affinity in units of concentration. One may read the koff as the first-order rate constant of dissociation. As usually defined, the kon is the rate constant with which the complex forms. As for “GAZYVA (obinutuzumab), commercial afucosylated anti-CD20 antibody”, the Kd was found to be 39.9 nM, the koff stood at 0.0069 s⁻¹ and the kon worked out at 173000 M⁻¹ s⁻¹.
